The conditions of data set [1]: unstructured peptides; cited from earlier work.
For a further data set, the target named is Glu190 (UniProt position 190, EALVEEEKTGD). Description: ITC. The settings on record: 20 °C, 200 mM NaCl, 50 mM Tris (pH 8.5-7.5), 50 mM BisTris (pH 7.0-6.0) or 50 mM Na-acetate (pH 5.5-4.0), each with 1 mM beta-mercaptoethanol.
The target of a further data set is Glu218 (UniProt position 218, RALAEEKGLEF). Description: ITC. The settings on record: 20 °C, 200 mM NaCl, 50 mM Tris (pH 8.5-7.5), 50 mM BisTris (pH 7.0-6.0) or 50 mM Na-acetate (pH 5.5-4.0), each with 1 mM beta-mercaptoethanol.
[2] abbreviates: c-di-GMP-bound protein (pKab of the thermodynamic cycle).
Setting [3] is: ligand-free protein (pKaf of the thermodynamic cycle).

For the molecule `N[C@@H](CC(=O)O)C(=O)O` [aspartate], the “pKa of side chain carboxylate group” value in data set [1] is given as roughly 3.9.
Turning to `N[C@@H](CCC(=O)O)C(=O)O` [glutamate], in data set [1], the “pKa of side chain carboxylate group” value was roughly 4.4.
As a reminder, the pKa is the pH at which an ionisable group is half protonated. As to “PilF GSPII-B domain (PilF159-302) Q190E (Thermus thermophilus; Q190E)”, the pKa with Glu190 (setting [2]) came to 7.5; in the data set with Glu190 (setting [3]) it was 6.3.
Turning to “PilF GSPII-B domain (PilF159-302) Q218E (Thermus thermophilus; Q218E)”, the pKa with Glu218 (setting [2]) is on record as 7.1; with Glu218 (setting [3]) it was 5.9.
